Reference: patent US20140100265

Target: ribosomal protein S6, P62754

B1: hp70S6K (delC/T389E), constitutively active form of human p70S6K protein (protein)
chain: MAGVFDIDLDQPEDAGSEDELEEGGQLNESMDHGGVGPYELGMEHCEKFEISETSVNRGPEKIRPECFELLRVLGKGGYGKVFQVRKVTGANTGKIFAMKVLKKAMIVRNAKDTAHTKAERNILEEVKHPFIVDLIYAFQTGGKLYLILEYLSGGELFMQLEREGIFMEDTACFYLAEISMALGHLHQKGIIYRDLKPENIMLNHQGHVKLTDFGLCKESIHDGTVTHTFCGTIEYMAPEILMRSGHNRAVDWWSLGALMYDMLTGAPPFTGENRKKTIDKILKCKLNLPPYLTQEARDLLKKLLKRNAASRLGAGPGDAGEVQAHPFFRHINWEELLARKVEPPFKPLLQSEEDVSQFDSKFTRQTPVDSPDDSTLSESANQVFLGFEYVAPSVLES
phosphorylation of ribosomal protein S6 (immunoperoxidase staining of SN sections after AAV transduction): hp70S6K(CA) induces a detectable increase in phosphorylation of ribosomal protein S6
